Measured values published in IntAct's records for PubMed 31515488.

B1: PiggyBac transposable element-derived protein 1 (Homo sapiens), Q96JS3 (parent)
chain: MYEALPGPAPENEDGLVKVKEEDPTWEQVCNSQEGSSHTQEICRLRFRHFCYQEAHGPQEALAQLRELCHQWLRPEMHTKEQIMELLVLEQFLTILPKELQPCVKTYPLESGEEAVTVLENLETGSGDTGQQASVYIQGQDMHPMVAEYQGVSLECQSLQLLPGITTLKCEPPQRPQGNPQEVSGPVPHGSAHLQEKNPRDKAVVPVFNPVRSQTLVKTEEETAQAVAAEKWSHLSLTRRNLCGNSAQETVMSLSPMTEEIVTKDRLFKAKQETSEEMEQSGEASGKPNRECAPQIPCSTPIATERTVAHLNTLKDRHPGDLWARMHISSLEYAAGDITRKGRKKDKARVSELLQGLSFSGDSDVEKDNEPEIQPAQKKLKVSCFPEKSWTKRDIKPNFPSWSALDSGLLNLKSEKLNPVELFELFFDDETFNLIVNETNNYASQKNVSLEVTVQEMRCVFGVLLLSGFMRHPRREMYWEVSDTDQNLVRDAIRRDRFELIFSNLHFADNGHLDQKDKFTKLRPLIKQMNKNFLLYAPLEEYYCFDKSMCECFDSDQFLNGKPIRIGYKIWCGTTTQGYLVWFEPYQEESTMKVDEDPDLGLGGNLVMNFADVLLERGQYPYHLCFDSFFTSVKLLSALKKKGVRATGTIRENRTEKCPLMNVEHMKKMKRGYFDFRIEENNEIILCRWYGDGIISLCSNAVGIEPVNEVSCCDADNEEIPQISQPSIVKVYDECKEGVAKMDQIISKYRVRIRSKKWYSILVSYMIDVAMNNAWQLHRACNPGASLDPLDFRRFVAHFYLEHNAHLSD
B2: Copper homeostasis protein cutC homolog (Homo sapiens), Q9NTM9 (parent)
chain: MKRQGASSERKRARIPSGKAGAANGFLMEVCVDSVESAVNAERGGADRIELCSGLSEGGTTPSMGVLQVVKQSVQIPVFVMIRPRGGDFLYSDREIEVMKADIRLAKLYGADGLVFGALTEDGHIDKELCMSLMAICRPLPVTFHRAFDMVHDPMAALETLLTLGFERVLTSGCDSSALEGLPLIKRLIEQAKGRIVVMPGGGITDRNLQRILEGSGATEFHCSARSTRDSGMKFRNSSVAMGASLSCSEYSLKVTDVTKVRTLNAIAKNILV
partner: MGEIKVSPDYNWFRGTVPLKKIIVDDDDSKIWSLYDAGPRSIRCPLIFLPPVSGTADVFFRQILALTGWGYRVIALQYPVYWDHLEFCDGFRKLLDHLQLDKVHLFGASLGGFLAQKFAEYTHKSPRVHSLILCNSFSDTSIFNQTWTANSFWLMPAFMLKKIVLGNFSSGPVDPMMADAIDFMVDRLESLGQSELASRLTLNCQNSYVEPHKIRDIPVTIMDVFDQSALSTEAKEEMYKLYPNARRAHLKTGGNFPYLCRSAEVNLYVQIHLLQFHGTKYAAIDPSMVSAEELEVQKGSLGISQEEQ
B3: Centrosomal protein of 55 kDa (Homo sapiens), Q53EZ4 (parent)
chain: MSSRSTKDLIKSKWGSKPSNSKSETTLEKLKGEIAHLKTSVDEITSGKGKLTDKERHRLLEKIRVLEAEKEKNAYQLTEKDKEIQRLRDQLKARYSTTTLLEQLEETTREGERREQVLKALSEEKDVLKQQLSAATSRIAELESKTNTLRLSQTVAPNCFNSSINNIHEMEIQLKDALEKNQQWLVYDQQREVYVKGLLAKIFELEKKTETAAHSLPQQTKKPESEGYLQEEKQKCYNDLLASAKKDLEVERQTITQLSFELSEFRRKYEETQKEVHNLNQLLYSQRRADVQHLEDDRHKTEKIQKLREENDIARGKLEEEKKRSEELLSQVQFLYTSLLKQQEEQTRVALLEQQMQACTLDFENEKLDRQHVQHQLHVILKELRKARNQITQLESLKQLHEFAITEPLVTFQGETENREKVAASPKSPTAALNESLVECPKCNIQYPATEHRDLLVHVEYCSK
partner: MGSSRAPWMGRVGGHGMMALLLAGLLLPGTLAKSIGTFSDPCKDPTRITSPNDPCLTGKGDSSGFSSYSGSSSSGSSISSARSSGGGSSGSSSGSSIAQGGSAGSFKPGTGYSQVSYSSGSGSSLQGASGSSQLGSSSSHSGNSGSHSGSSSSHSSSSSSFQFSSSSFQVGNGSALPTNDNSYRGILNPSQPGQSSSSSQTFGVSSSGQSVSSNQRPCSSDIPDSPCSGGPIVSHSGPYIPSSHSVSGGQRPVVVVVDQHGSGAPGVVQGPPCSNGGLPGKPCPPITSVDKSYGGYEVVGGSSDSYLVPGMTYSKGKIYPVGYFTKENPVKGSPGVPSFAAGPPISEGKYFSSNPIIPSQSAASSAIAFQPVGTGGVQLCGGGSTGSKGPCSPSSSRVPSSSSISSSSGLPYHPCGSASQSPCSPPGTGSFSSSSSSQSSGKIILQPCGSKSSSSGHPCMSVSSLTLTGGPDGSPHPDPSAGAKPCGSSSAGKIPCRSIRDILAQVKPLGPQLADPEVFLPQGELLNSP

Variants of: B1
Details: with traf2_human TRAF2, Q12933
Sequence of traf2_human TRAF2, Q12933 (Q12933 whole entry): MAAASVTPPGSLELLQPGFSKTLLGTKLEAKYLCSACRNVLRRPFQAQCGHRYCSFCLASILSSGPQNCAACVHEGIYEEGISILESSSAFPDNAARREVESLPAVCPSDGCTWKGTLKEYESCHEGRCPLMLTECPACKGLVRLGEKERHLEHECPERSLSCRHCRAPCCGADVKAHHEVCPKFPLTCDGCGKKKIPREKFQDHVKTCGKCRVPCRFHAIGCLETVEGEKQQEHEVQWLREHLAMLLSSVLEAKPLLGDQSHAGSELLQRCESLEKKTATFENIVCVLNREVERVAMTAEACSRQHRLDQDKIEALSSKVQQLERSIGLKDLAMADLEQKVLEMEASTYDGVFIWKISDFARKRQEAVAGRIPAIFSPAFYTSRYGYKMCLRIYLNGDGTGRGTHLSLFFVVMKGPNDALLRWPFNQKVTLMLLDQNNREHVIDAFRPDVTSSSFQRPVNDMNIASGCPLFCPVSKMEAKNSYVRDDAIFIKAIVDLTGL

effect of a mutation on the interaction | Variant
with no effect | I678V
with no effect | N398S

Variants of: B1
Details: with zsc22_human ZSCAN22, P10073
Sequence of zsc22_human ZSCAN22, P10073 (P10073 whole entry): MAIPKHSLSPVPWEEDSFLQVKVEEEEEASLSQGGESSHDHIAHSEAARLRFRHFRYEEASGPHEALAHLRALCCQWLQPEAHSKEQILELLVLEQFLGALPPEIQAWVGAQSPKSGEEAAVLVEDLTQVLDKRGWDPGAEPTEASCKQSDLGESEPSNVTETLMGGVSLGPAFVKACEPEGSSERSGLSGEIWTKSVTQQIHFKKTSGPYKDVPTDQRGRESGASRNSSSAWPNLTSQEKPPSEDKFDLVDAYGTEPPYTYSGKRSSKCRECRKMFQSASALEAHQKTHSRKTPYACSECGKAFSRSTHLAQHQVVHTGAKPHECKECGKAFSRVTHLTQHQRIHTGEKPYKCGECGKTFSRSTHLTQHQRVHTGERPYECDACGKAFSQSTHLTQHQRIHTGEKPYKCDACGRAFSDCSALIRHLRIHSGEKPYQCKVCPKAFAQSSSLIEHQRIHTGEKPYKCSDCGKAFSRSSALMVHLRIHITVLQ

effect of a mutation on the interaction | Variant
with no effect | I678V
with no effect | N398S

Variants of: B1
Details: with zn446_human ZNF446, Q9NWS9
Sequence of zn446_human ZNF446, Q9NWS9 (Q9NWS9 whole entry): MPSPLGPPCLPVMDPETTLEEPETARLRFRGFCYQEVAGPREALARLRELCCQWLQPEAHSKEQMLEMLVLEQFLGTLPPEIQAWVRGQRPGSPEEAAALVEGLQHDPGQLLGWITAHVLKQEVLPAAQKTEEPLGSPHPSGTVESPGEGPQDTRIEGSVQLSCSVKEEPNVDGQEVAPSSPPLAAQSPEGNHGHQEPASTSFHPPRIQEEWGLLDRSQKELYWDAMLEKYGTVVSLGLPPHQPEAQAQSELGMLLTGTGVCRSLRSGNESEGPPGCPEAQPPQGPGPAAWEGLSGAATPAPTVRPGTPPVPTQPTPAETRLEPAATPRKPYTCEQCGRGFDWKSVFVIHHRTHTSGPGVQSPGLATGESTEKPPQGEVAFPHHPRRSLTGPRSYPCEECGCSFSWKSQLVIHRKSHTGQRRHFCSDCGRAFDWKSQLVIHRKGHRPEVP

effect of a mutation on the interaction | Variant
with no effect | I678V
with no effect | N398S

Variants of: B1
Details: with znf24_human ZNF24, P17028
Sequence of znf24_human ZNF24, P17028 (P17028 whole entry): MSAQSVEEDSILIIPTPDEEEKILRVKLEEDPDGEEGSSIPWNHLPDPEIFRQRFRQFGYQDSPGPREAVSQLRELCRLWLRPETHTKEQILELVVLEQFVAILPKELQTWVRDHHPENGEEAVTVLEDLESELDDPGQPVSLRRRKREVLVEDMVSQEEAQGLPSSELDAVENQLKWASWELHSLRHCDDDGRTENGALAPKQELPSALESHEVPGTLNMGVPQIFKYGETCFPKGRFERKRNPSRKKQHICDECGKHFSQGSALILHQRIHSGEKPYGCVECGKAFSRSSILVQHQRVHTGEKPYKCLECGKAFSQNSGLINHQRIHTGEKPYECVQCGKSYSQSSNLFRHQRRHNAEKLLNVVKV

effect of a mutation on the interaction | Variant
with no effect | I678V
with no effect | T25A

Variants of: B2
Details: with spg21_human SPG21, Q9NZD8

effect of a mutation on the interaction | Variant
disrupting interaction strength | P77L

Variants of: B3
Details: with cdsn_human CDSN

effect of a mutation on the interaction | Variant
with no effect | H57Q
with no effect | R348K
with no effect | A244P
